Test results as given in patent US20210388096A1.

Target: human Fn14 on cells (NFkB/HEK293 reporter cells, A375 cells) (human) (UniProt Q9NP84)
Test: cell-based or functional assay

Sequence of human Fn14 on cells (NFkB/HEK293 reporter cells, A375 cells) (human) (Q9NP84 28-129): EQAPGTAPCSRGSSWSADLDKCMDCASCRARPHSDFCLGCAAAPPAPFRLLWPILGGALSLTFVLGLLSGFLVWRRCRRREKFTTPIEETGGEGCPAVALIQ

IC50 (ng/mL), inhibition of Tweak-induced NFkB activation (luciferase reporter, NFkB/HEK293 cells), geometric mean of three trials: 115 ng/mL
B1: mouse anti-human Fn14 antibody CRCBT-06-002 (antibody, from another filing, V domains shown)
VH: EVKLQQSGGGLVQPGGSMKLSCVASGFTFSYYWMNWVRQSPEQGLEWIAEIRLQSNDYPTHYAESVKGRFTISRDDSKNSVYLQMNNLRPEDTGIYYCACRYADYFDHWGQGTTLTVSS
VL: DTVLTQSPASLVVSLGQRATISCRASQSVSTSDYSYIHWYQQKPGQPPKFLIKYASNRDSGVPARFSGSGSGTDFTLNIHPVEEDDTAIYYCQHSWEIPPTFGAGTKLELQR
